Measurements reported in article PMC9482650, “Quantitative fragmentomics allow affinity mapping of interactomes” (Nature Communications, 2022).

Key:
Test in all cases: holdup assay
Design in all cases: key: below the threshold = too weak to quantify, mostly under pKd 3.1 to 4
FRMPD3, Q5JV73 = molecular target: FRMPD3, Q5JV73
DLG3_2, Q92796 = molecular target: T1, DLG3_2, Q92796
T1 sequence (Q92796 221-321, limits assumed, looked up): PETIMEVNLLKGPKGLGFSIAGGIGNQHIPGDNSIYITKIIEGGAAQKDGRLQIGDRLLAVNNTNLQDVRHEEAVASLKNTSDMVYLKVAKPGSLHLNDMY

PARD3B_1, Q8TEW8 = molecular target: T2, PARD3B_1, Q8TEW8
T2 sequence (Q8TEW8 196-299, limits assumed, looked up): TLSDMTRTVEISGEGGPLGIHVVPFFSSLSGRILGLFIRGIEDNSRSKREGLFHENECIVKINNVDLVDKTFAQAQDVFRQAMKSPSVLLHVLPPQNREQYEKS

ARHGEF12, Q9NZN5-2 = molecular target: ARHGEF12, Q9NZN5-2
Chain of ARHGEF12, Q9NZN5-2 (Q9NZN5 other isoform, or with tags, fused parts or gaps): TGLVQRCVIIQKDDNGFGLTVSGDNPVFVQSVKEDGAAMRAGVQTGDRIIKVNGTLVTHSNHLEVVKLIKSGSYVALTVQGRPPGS

GRIP2_7, Q9C0E4 = molecular target: GRIP2_7, Q9C0E4
Chain of GRIP2_7, Q9C0E4 (Q9C0E4 934-1023): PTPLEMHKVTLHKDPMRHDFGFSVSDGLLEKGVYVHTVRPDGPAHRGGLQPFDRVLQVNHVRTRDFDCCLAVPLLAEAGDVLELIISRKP

APBA1_1, Q02410 = molecular target: T3, APBA1_1, Q02410
T3 sequence (Q02410 651-752, limits assumed, looked up): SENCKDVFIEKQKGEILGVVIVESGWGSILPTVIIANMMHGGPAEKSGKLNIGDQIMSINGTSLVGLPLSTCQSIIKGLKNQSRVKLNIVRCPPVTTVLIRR

Inadl_9, Q8NI35 = molecular target: Inadl_9, Q8NI35
Chain of Inadl_9, Q8NI35 (Q8NI35 1530-1615): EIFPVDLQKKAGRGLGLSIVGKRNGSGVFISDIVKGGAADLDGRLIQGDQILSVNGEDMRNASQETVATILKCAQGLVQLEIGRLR

GRASP, Q7Z6J2 = molecular target: GRASP, Q7Z6J2
Chain of GRASP, Q7Z6J2 (Q7Z6J2 96-193): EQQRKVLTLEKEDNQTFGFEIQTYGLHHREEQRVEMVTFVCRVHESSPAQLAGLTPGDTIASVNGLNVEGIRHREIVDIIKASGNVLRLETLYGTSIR

LIN7A, O14910 = molecular target: T4, LIN7A, O14910
T4 sequence (O14910 103-200, limits assumed, looked up): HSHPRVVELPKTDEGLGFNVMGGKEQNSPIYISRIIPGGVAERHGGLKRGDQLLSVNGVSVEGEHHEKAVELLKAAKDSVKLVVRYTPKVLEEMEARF

MAGI2_6, Q86UL8 = molecular target: MAGI2_6, Q86UL8
Chain of MAGI2_6, Q86UL8 (Q86UL8 1141-1229): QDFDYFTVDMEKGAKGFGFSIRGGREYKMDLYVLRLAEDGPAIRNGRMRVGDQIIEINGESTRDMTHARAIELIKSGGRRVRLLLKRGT

LNX1_2, Q8TBB1 = molecular target: LNX1_2, Q8TBB1
Chain of LNX1_2, Q8TBB1 (Q8TBB1 371-470): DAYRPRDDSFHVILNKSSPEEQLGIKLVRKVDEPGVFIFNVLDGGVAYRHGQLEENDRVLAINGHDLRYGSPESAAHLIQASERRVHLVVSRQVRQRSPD

PCLO, Q9Y6V0 = molecular target: T5, PCLO, Q9Y6V0
T5 sequence (Q9Y6V0 4491-4600, limits assumed, looked up): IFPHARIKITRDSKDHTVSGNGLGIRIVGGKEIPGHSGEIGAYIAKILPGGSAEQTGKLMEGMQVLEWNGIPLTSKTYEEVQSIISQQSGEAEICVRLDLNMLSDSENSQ

SNTG2, Q9NY99 = molecular target: T6, SNTG2, Q9NY99
T6 sequence (Q9NY99 68-166, limits assumed, looked up): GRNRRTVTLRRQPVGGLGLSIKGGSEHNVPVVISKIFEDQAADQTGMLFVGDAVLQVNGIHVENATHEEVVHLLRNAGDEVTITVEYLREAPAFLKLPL

TX1BP3, O14907 = molecular target: T7, TX1BP3, O14907
T7 sequence (O14907 10-122, limits assumed, looked up): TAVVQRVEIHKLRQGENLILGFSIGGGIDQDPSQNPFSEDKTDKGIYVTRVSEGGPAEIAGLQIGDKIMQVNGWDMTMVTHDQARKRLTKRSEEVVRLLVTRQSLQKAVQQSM

Inadl_10, Q8NI35 = molecular target: Inadl_10, Q8NI35
Chain of Inadl_10, Q8NI35 (Q8NI35 1673-1763): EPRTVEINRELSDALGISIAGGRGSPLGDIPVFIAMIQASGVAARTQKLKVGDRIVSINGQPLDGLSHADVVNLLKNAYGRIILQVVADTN

RAPGEF6, Q8TEU7 = molecular target: T8, RAPGEF6, Q8TEU7
T8 sequence (Q8TEU7 525-625, limits assumed, looked up): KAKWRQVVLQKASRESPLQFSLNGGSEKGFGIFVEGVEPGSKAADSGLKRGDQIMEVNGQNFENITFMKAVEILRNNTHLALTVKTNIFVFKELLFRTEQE

LIMK2, P53671 = molecular target: LIMK2, P53671
Chain of LIMK2, P53671 (P53671 143-248): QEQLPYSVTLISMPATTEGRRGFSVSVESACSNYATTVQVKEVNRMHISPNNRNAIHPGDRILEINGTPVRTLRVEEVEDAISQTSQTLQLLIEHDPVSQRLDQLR

LNX1_1, Q8TBB1 = molecular target: LNX1_1, Q8TBB1
Chain of LNX1_1, Q8TBB1 (Q8TBB1 261-371): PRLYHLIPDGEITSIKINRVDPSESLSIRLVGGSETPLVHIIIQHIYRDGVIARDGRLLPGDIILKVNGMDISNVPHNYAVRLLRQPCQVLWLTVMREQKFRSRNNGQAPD

HTRA2, O43464 = molecular target: HTRA2, O43464
Chain of HTRA2, O43464 (O43464 355-458): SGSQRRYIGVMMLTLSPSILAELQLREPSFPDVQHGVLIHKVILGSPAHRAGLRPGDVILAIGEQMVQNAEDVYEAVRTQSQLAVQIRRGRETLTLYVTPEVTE

LIN7C, Q9NUP9 = molecular target: T9, LIN7C, Q9NUP9
T9 sequence (Q9NUP9 88-185, limits assumed, looked up): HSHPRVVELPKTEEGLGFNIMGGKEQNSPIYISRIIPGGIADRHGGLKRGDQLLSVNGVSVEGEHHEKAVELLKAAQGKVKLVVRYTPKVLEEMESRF

DLG3_1, Q92796 = molecular target: T10, DLG3_1, Q92796
T10 sequence (Q92796 125-227, limits assumed, looked up): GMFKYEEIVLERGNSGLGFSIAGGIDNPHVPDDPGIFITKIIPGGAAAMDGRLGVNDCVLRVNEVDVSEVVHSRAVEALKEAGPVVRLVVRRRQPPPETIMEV

APBA2_2, Q99767 = molecular target: T11, APBA2_2, Q99767
T11 sequence (Q99767 654-744, limits assumed, looked up): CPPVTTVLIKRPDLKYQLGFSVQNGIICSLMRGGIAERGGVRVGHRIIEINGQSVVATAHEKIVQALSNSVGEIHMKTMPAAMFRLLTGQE

APBA2_1, Q99767 = molecular target: T12, APBA2_1, Q99767
T12 sequence (Q99767 563-664, limits assumed, looked up): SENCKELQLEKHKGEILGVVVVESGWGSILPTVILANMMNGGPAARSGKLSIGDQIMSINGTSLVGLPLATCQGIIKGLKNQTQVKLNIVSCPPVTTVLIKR

DLG1_3, Q12959 = molecular target: DLG1_3, Q12959
Chain of DLG1_3, Q12959 (Q12959 457-571): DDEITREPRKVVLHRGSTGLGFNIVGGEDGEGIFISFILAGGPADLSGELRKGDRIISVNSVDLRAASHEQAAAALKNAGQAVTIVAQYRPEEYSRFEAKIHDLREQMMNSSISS

MAGI3_2, Q5TCQ9 = molecular target: MAGI3_2, Q5TCQ9
Chain of MAGI3_2, Q5TCQ9 (Q5TCQ9 398-503): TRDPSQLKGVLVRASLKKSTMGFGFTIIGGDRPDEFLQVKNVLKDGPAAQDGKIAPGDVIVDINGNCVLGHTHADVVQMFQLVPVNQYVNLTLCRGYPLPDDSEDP

[1] = plain residues with an end cap or a label only (N-terminal biotin on a linker: ado-ado)
[2] = modified: phospho on T at position -2 from the C-terminal residue

Measured: pKd

Chain of FRMPD3, Q5JV73 (Q5JV73 12-100): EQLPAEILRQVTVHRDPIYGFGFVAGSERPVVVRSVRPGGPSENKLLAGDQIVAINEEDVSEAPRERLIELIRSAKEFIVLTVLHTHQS

SAGADSETHC [SLCO1B1, Q9Y6L6]
3.93: LIN7C, Q9NUP9; [1]
3.61: SNTG2, Q9NY99; [1]
below the threshold: FRMPD3, Q5JV73; [1] | DLG3_2, Q92796; [1] | PARD3B_1, Q8TEW8; [1] | ARHGEF12, Q9NZN5-2; [1] | GRIP2_7, Q9C0E4; [1] | APBA1_1, Q02410; [1] | Inadl_9, Q8NI35; [1] | GRASP, Q7Z6J2; [1] | LIN7A, O14910; [1] | MAGI2_6, Q86UL8; [1] | LNX1_2, Q8TBB1; [1] | PCLO, Q9Y6V0; [1] | TX1BP3, O14907; [1] | Inadl_10, Q8NI35; [1] | RAPGEF6, Q8TEU7; [1] | LIMK2, P53671; [1] | LNX1_1, Q8TBB1; [1] | HTRA2, O43464; [1] | DLG3_1, Q92796; [1] | APBA2_2, Q99767; [1] | APBA2_1, Q99767; [1] | DLG1_3, Q12959; [1] | MAGI3_2, Q5TCQ9; [1]

WAKEKQHTRL [SLC17A1, Q14916]
4.15: SNTG2, Q9NY99; [1]
below the threshold: FRMPD3, Q5JV73; [1] | DLG3_2, Q92796; [1] | GRIP2_7, Q9C0E4; [1] | APBA1_1, Q02410; [1] | Inadl_9, Q8NI35; [1] | LIN7A, O14910; [1] | MAGI2_6, Q86UL8; [1] | LNX1_2, Q8TBB1; [1] | PCLO, Q9Y6V0; [1] | TX1BP3, O14907; [1] | Inadl_10, Q8NI35; [1] | RAPGEF6, Q8TEU7; [1] | LIMK2, P53671; [1] | HTRA2, O43464; [1] | LIN7C, Q9NUP9; [1] | DLG3_1, Q92796; [1] | APBA2_2, Q99767; [1] | APBA2_1, Q99767; [1] | DLG1_3, Q12959; [1]
4.31: PARD3B_1, Q8TEW8; [1]
4.84: ARHGEF12, Q9NZN5-2; [1]
3.47: LNX1_1, Q8TBB1; [1]
4.71: GRASP, Q7Z6J2; [1]
4.47: MAGI3_2, Q5TCQ9; [1]

GVHSNDHSVV [LPAR1, Q92633]
3.54: ARHGEF12, Q9NZN5-2; [1]
4.42: DLG3_2, Q92796; [1]
below the threshold: FRMPD3, Q5JV73; [1] | PARD3B_1, Q8TEW8; [1] | GRIP2_7, Q9C0E4; [1] | APBA1_1, Q02410; [1] | Inadl_9, Q8NI35; [1] | LIN7A, O14910; [1] | MAGI2_6, Q86UL8; [1] | LNX1_2, Q8TBB1; [1] | PCLO, Q9Y6V0; [1] | SNTG2, Q9NY99; [1] | TX1BP3, O14907; [1] | Inadl_10, Q8NI35; [1] | RAPGEF6, Q8TEU7; [1] | LIMK2, P53671; [1] | LNX1_1, Q8TBB1; [1] | HTRA2, O43464; [1] | LIN7C, Q9NUP9; [1] | DLG3_1, Q92796; [1] | APBA2_2, Q99767; [1] | APBA2_1, Q99767; [1] | DLG1_3, Q12959; [1] | MAGI3_2, Q5TCQ9; [1]
4.47: GRASP, Q7Z6J2; [1]

SRSRRRETAL [HPV33-E6_-2P, P06427]
4.08: LIN7C, Q9NUP9; [2]
below the threshold: FRMPD3, Q5JV73; [2] | DLG3_2, Q92796; [2] | PARD3B_1, Q8TEW8; [2] | ARHGEF12, Q9NZN5-2; [2] | GRIP2_7, Q9C0E4; [2] | APBA1_1, Q02410; [2] | Inadl_9, Q8NI35; [2] | GRASP, Q7Z6J2; [2] | LIN7A, O14910; [2] | MAGI2_6, Q86UL8; [2] | LNX1_2, Q8TBB1; [2] | PCLO, Q9Y6V0; [2] | SNTG2, Q9NY99; [2] | TX1BP3, O14907; [2] | Inadl_10, Q8NI35; [2] | RAPGEF6, Q8TEU7; [2] | LIMK2, P53671; [2] | LNX1_1, Q8TBB1; [2] | HTRA2, O43464; [2] | DLG3_1, Q92796; [2] | APBA2_2, Q99767; [2] | APBA2_1, Q99767; [2] | DLG1_3, Q12959; [2] | MAGI3_2, Q5TCQ9; [2]

DYSNLRETDI [ADRA1D, P25100]
5.05: SNTG2, Q9NY99; [1]
4.44: LNX1_1, Q8TBB1; [1]
4.05: LIN7C, Q9NUP9; [1]
4.51: TX1BP3, O14907; [1]
3.6: DLG3_1, Q92796; [1]
below the threshold: FRMPD3, Q5JV73; [1] | PARD3B_1, Q8TEW8; [1] | GRIP2_7, Q9C0E4; [1] | APBA1_1, Q02410; [1] | Inadl_9, Q8NI35; [1] | GRASP, Q7Z6J2; [1] | LIN7A, O14910; [1] | LNX1_2, Q8TBB1; [1] | PCLO, Q9Y6V0; [1] | Inadl_10, Q8NI35; [1] | RAPGEF6, Q8TEU7; [1] | LIMK2, P53671; [1] | HTRA2, O43464; [1] | APBA2_2, Q99767; [1] | APBA2_1, Q99767; [1] | DLG1_3, Q12959; [1] | MAGI3_2, Q5TCQ9; [1]
4.39: DLG3_2, Q92796; [1]
4.03: ARHGEF12, Q9NZN5-2; [1]
4.31: MAGI2_6, Q86UL8; [1]
